From US20240092907A1 (Five Prime, published 2024) come the findings set out here.

Where a chain is given by its changes, count along the chain named.

The target of assay [1] is avidin (ThermoFisher Scientific catalog #21128) (UniProt P02701 25-152). The assay is described as follows: SPR 25C, Ab on Protein A, pH 6.0 and 7.4. How it is done: (§1) Protein A (ThermoFisher Scientific catalog #21181) was diluted to 20 ug/ml in 10 mM sodium acetate pH 4.5 and immobilized onto flow cells of a CM3 biosensor following the manufacturer's amine coupling protocol (GE Healthcare), targeting 800 RU immobilization density of Protein A per flow cell. SPR experiments were conducted at 25° C. using PBST (137 mM sodium chloride, 2.7 mM potassium chloride, 10 mM phosphate buffer, 0.05% Tween 20) running buffer at pH 7.4 and 6.0. Antibodies (formatted as IgG1.3 antibodies) were diluted to 50 nM in PBST pH 7.4, and were captured across active biosensor flow cells at 5 ul/min for 60 seconds. […] Two 15 second injections of 10 mM glycine pH 1.5 were used to regenerate the Protein A capture surface between assay cycles. Reference flow cell and 0 nM blank-subtracted sensorgrams were inspected using Biacore® T200 Evaluation Software v.2.0.

The target of assay [2] is BSA (Calbiochem catalog #126593) (UniProt P02769 25-607). The assay is described as follows: SPR 25C, Ab on Protein A, pH 6.0 and 7.4. How it is done:
as §1

For assay [3], the target named is T1, recombinant hVISTA ECD multimer (monobiotinylated hVISTA ECD on PE-streptavidin dextramers) (human, UniProt Q9H7M9 33-194, limits assumed, monobiotinylated).
T1 construct: Loaded at a 28:1 molar ratio onto PE-conjugated streptavidin dextramers; also called VISTA multimer; hVISTA-loaded dextramers
T1 sequence (looked up): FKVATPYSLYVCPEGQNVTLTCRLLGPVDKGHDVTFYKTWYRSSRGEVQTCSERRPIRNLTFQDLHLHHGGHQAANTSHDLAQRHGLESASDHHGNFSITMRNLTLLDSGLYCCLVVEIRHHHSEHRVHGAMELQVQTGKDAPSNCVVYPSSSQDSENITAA
Nature of the assay: flow cytometry, blocking of VISTA multimer binding to activated human CD4+ T cells, pH 6.0. How it is done:
As a control, activated CD4+ T cells were stained with PE-conjugated streptavidin dextramers that were not loaded with hVISTA. The stained cells were washed with HBSS+ MES and acquired on a flow cytometer. Data were analyzed using FlowJo™ software (BD Biosciences). […] Left, from darker gray to lighter, the filled histograms depict binding at pH 7.0, 6.5, 6.4, 6.3, 6.1, and 6.0. Some histograms are labeled with their corresponding pH. Non-VISTA control multimer binding at pH 6.0 is shown as the unfilled histogram. Right, graphed PE mean fluorescence intensities (MFI) of CD4+ T cells stained with hVISTA-loaded dextramers (blue circles) or with non-loaded dextramers (triangles) at various pH.
This blocking assay was performed as described in Example 4.
(A flow cytometer gives signals particle by particle.)

Sequence of BSA (Calbiochem catalog #126593) (P02769 25-607 limits assumed): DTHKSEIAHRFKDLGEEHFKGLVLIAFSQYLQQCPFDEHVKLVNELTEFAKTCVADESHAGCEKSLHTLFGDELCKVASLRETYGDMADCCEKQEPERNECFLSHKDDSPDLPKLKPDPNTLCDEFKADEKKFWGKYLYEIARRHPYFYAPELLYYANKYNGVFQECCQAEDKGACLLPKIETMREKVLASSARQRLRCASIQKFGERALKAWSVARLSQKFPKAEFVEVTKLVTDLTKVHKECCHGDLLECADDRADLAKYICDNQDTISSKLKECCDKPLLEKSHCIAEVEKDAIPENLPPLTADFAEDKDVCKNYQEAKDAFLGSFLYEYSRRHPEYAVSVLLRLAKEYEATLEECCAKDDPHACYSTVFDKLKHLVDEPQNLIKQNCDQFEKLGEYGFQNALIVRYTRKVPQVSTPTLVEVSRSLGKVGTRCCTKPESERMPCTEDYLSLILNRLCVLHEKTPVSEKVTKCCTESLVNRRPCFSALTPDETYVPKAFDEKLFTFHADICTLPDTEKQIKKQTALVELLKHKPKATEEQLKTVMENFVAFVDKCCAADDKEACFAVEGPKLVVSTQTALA
Sequence of avidin (ThermoFisher Scientific catalog #21128) (P02701 25-152 limits assumed): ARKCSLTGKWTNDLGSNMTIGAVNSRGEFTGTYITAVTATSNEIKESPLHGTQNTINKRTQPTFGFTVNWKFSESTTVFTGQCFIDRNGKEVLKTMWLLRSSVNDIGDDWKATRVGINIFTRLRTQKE

B1: P1-061029.IgG1.3 (antibody)
heavy: EVQLVESGGGLVQPGKSLRLSCAASGFTLDDYAMHWVRQAPGKGLEWVSGINWNSANIGYADSVKGRFTISRDNAKNSLYLQMNSLRTEDTALYYCAKVPGYSGGWIDAFDVWGQGTMVTVSSASTKGPSVFPLAPSSKSTSGGTAALGCLVKDYFPEPVTVSWNSGALTSGVHTFPAVLQSSGLYSLSSVVTVPSSSLGTQTYICNVNHKPSNTKVDKRVEPKSCDKTHTCPPCPAPEAEGAPSVFLFPPKPKDTLMISRTPEVTCVVVDVSHEDPEVKFNWYVDGVEVHNAKTKPREEQYNSTYRVVSVLTVLHQDWLNGKEYKCKVSNKALPAPIEKTISKAKGQPREPQVYTLPPSREEMTKNQVSLTCLVKGFYPSDIAVEWESNGQPENNYKTTPPVLDSDGSFFLYSKLTVDKSRWQQGNVFSCSVMHEALHNHYTQKSLSLSPG
light: not shown
notes: IgG1.3; also called parent; hIgG1.3f
For B1, the binding result in assay [1] and in assay [2] was “no binding (tested: 100-10 nM; binding defined as >10 RU)” in each case. In assay [3], the “IC50 (read off the curve)” value is approximately 0.04 mg/L.

B2: P1-068767.IgG1.3 (antibody, V domains shown)
VH: EVQLVESGGGLVQPGKSLRLSCAASGFTLEDYAMHWVRQAPGKGLEWVSGIDWNSENIGYADSVKGRFTISRDNAKNSLYLQMNSLRTEDTALYYCAKVPGYSGGWIDAEDDWGQGTMVTVSS
VL: not shown
notes: IgG1.3; also called hIgG1.3f; printed once as P1-068768
Turning to B2, the binding result in assay [1] and in assay [2] was “no binding (tested: 100-10 nM; binding defined as >10 RU)” in each case.

B3: P1-068761.IgG1.3 (antibody)
heavy: B1 heavy with D30E, Y32E, A56E, N57E, G104H, F110E
light: not shown
notes: IgG1.3; also called hIgG1.3f
Take B3: the binding result in assay [1] and in assay [2] was “no binding (tested: 100-10 nM; binding defined as >10 RU)” in each case.
